{"source": "IntAct's records for PubMed 11264384", "molecular_target": "nef_hv1a2 nef (UniProt P03407)", "sequence (P03407 whole entry)": "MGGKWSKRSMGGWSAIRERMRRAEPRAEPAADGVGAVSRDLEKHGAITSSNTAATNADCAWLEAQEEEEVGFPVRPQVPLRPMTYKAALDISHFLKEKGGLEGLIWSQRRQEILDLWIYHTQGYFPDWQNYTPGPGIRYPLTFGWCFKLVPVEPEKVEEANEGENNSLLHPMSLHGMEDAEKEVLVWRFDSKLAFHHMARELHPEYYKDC", "data": [{"substance": "T-cell surface glycoprotein CD4 (Homo sapiens) (from UniProt P01730) L438A;L439A", "values": [{"measurement": "effect of a mutation on the interaction", "value": "disrupting interaction strength"}]}]}
